Measured values: publication PMC12263435, “Mechanistic basis for PYROXD1-mediated protection of the human tRNA ligase complex against oxidative inactivation” (Nature Structural & Molecular Biology, 2025)

T1: RTCB–PYROXD1 complex (Homo sapiens, UniProt Q8WU10)
T1 construct: PYROXD1 (GST cut, E. coli) with RTCB (N-terminal tag cut by TEV, Sf9); 1:1 complex with Mg2+ in RTCB; with RNA-splicing ligase RtcB homolog
T1 sequence (Q8WU10 1-500): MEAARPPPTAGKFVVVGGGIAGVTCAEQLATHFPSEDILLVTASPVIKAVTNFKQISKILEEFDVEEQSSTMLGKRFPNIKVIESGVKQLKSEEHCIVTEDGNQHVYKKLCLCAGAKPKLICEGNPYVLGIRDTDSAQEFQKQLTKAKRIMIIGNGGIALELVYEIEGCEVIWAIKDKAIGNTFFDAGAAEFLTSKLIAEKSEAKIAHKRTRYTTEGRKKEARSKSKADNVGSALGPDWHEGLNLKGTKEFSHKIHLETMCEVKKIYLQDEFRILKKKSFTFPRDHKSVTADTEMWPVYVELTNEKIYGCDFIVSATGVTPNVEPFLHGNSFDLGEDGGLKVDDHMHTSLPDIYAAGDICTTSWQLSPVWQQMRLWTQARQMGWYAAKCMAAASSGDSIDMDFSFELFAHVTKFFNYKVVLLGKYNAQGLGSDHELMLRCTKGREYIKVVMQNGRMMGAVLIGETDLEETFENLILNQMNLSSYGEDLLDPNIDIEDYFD
T1 sequence (Q9Y3I0 1-505 partner): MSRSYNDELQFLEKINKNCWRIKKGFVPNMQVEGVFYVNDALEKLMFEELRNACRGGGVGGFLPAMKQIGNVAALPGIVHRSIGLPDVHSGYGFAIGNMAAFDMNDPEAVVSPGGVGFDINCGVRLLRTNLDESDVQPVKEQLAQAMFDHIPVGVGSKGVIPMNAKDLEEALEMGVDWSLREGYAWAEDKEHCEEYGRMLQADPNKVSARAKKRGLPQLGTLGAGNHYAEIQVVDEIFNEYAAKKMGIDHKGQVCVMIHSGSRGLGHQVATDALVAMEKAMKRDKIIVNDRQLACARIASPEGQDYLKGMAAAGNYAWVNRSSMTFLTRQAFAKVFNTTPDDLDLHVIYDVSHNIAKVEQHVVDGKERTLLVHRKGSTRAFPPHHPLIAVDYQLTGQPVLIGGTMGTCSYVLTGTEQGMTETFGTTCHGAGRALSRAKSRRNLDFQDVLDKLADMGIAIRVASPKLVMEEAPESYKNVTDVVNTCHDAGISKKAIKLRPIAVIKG

T2: StrepII–GFP–RTCB (human, UniProt Q9Y3I0 1-505)
T2 construct: human RTCB (UniProt Q9Y3I0), catalytic subunit of the tRNA ligase complex; inserted into the 438-Rgfp plasmid; a TEV site lies between GFP and RTCB; In the dissociation assay it is called 2× StrepII–GFP–RTCB; also called immobilized RTCB; 2× StrepII–GFP–RTCB; source: Sf9 insect cells (baculovirus), purified (Strep-Tactin, SEC); not shown: StrepII, N-terminal, kept; super folder green fluorescent …
T2 sequence: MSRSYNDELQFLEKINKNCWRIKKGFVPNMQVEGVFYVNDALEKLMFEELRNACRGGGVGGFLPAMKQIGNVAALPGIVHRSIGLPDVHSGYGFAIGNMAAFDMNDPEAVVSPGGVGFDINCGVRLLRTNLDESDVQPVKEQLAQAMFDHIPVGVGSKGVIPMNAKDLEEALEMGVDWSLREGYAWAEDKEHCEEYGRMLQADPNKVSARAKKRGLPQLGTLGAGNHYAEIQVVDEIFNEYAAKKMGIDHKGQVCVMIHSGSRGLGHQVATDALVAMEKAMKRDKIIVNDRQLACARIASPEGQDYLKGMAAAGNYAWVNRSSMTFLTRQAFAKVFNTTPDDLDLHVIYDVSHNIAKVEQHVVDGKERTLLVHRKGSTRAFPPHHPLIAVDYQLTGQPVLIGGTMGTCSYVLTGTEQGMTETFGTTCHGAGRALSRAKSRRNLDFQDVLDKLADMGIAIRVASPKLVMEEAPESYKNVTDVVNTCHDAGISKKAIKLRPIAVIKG


Key:
[1] = molecular target: T1, RTCB–PYROXD1 complex; test: cryo-EM structure, […] Å; assay type: binding; conditions: prepared with 0.5 mM NADH, 5 mM MgCl2, pH 8.0, redox state NAD+ inferred (charge-transfer complex), PYROXD1 active site
[2] = molecular target: T2, StrepII–GFP–RTCB; test: pull-down; StrepII–GFP–RTCB (0.2 nmol) immobilised on MagStrep type 3 XT beads, 0.4 nmol PYROXD1; HEPES pH 8.0, 150 mM KCl, 0.1% Tween-20, 1 mM TCEP, 0.5 mM NADH, 2.5 mM MgCl2, 2.5 mM MnCl2; 30 min at 4 °C; SDS–PAGE, Coomassie Blue; conditions: both partners purified
[3] = substrate: NC(=O)C1=CN([C@@H]2O[C@H](COP(=O)(O)OP(=O)(O)OC[C@H]3O[C@@H](n4cnc5c(N)ncnc54)[C@H](O)[C@@H]3O)[C@@H](O)[C@H]2O)C=CC1; test: purified protein; assay type: biochemical, Homo sapiens; conditions: aerobic (O2 as acceptor), 20 mM Tris-HCl pH 8.0, 150 mM KCl, 0.05% Tween-20, 22 °C, text prints W293A, figure legend W239A

binding result [2] | Molecule | also measured
 | NC(=O)c1ccc[n+]([C@@H]2O[C@H](COP(=O)(O)OP(=O)(O)OC[C@H]3O[C@@H](n4cnc5c(N)ncnc54)[C@H](O)[C@@H]3O)[C@@H](O)[C@H]2O)c1 [NAD^+] | cryo-EM structure, 3.3 Å [1]: NAD^+ interacts with residues Gly157, Ile158, Arg374, His410 and Thr412
 | Cc1cc2c(cc1C)N(C[C@H](O)[C@H](O)[C@H](O)COP(=O)(O)OP(=O)(O)OC[C@H]1O[C@@H](n3cnc4c(N)ncnc43)[C@H](O)[C@@H]1O)c1[nH]c(=O)[nH]c(=O)c1N2 [FADH^−] | cryo-EM structure, 3.3 Å ([1]; redox state FADH- inferred): PYROXD1 coordinates FADH^− with residues including Gly18, Ala21, Thr42, Ala43
binds | PYROXD1 ∆500 (domain or fragment, human, UniProt Q8WU10 1-499, looked up, human PYROXD1 (UniProt Q8WU10), C-terminal truncation ∆500 (lacks the C-terminal residue Asp500); source: E. coli BL21(DE3), purified (Glutathione Sepharose, 3C cleavage, SEC); not shown: GST, N-terminal, cleaved) MEAARPPPTAGKFVVVGGGIAGVTCAEQLATHFPSEDILLVTASPVIKAVTNFKQISKILEEFDVEEQSSTMLGKRFPNIKVIESGVKQLKSEEHCIVTEDGNQHVYKKLCLCAGAKPKLICEGNPYVLGIRDTDSAQEFQKQLTKAKRIMIIGNGGIALELVYEIEGCEVIWAIKDKAIGNTFFDAGAAEFLTSKLIAEKSEAKIAHKRTRYTTEGRKKEARSKSKADNVGSALGPDWHEGLNLKGTKEFSHKIHLETMCEVKKIYLQDEFRILKKKSFTFPRDHKSVTADTEMWPVYVELTNEKIYGCDFIVSATGVTPNVEPFLHGNSFDLGEDGGLKVDDHMHTSLPDIYAAGDICTTSWQLSPVWQQMRLWTQARQMGWYAAKCMAAASSGDSIDMDFSFELFAHVTKFFNYKVVLLGKYNAQGLGSDHELMLRCTKGREYIKVVMQNGRMMGAVLIGETDLEETFENLILNQMNLSSYGEDLLDPNIDIEDYF | 
binds | PYROXD1 ∆E496 (enzyme, human, source: E. coli BL21(DE3), purified (Glutathione Sepharose, 3C cleavage, SEC); not shown: GST, N-terminal, cleaved) MEAARPPPTAGKFVVVGGGIAGVTCAEQLATHFPSEDILLVTASPVIKAVTNFKQISKILEEFDVEEQSSTMLGKRFPNIKVIESGVKQLKSEEHCIVTEDGNQHVYKKLCLCAGAKPKLICEGNPYVLGIRDTDSAQEFQKQLTKAKRIMIIGNGGIALELVYEIEGCEVIWAIKDKAIGNTFFDAGAAEFLTSKLIAEKSEAKIAHKRTRYTTEGRKKEARSKSKADNVGSALGPDWHEGLNLKGTKEFSHKIHLETMCEVKKIYLQDEFRILKKKSFTFPRDHKSVTADTEMWPVYVELTNEKIYGCDFIVSATGVTPNVEPFLHGNSFDLGEDGGLKVDDHMHTSLPDIYAAGDICTTSWQLSPVWQQMRLWTQARQMGWYAAKCMAAASSGDSIDMDFSFELFAHVTKFFNYKVVLLGKYNAQGLGSDHELMLRCTKGREYIKVVMQNGRMMGAVLIGETDLEETFENLILNQMNLSSYGEDLLDPNIDIDYFD | 
binds | PYROXD1 D497A (enzyme, human, human PYROXD1 (UniProt Q8WU10) with D497A; source: E. coli BL21(DE3), purified (Glutathione Sepharose, 3C cleavage, SEC); not shown: GST, N-terminal, cleaved) MEAARPPPTAGKFVVVGGGIAGVTCAEQLATHFPSEDILLVTASPVIKAVTNFKQISKILEEFDVEEQSSTMLGKRFPNIKVIESGVKQLKSEEHCIVTEDGNQHVYKKLCLCAGAKPKLICEGNPYVLGIRDTDSAQEFQKQLTKAKRIMIIGNGGIALELVYEIEGCEVIWAIKDKAIGNTFFDAGAAEFLTSKLIAEKSEAKIAHKRTRYTTEGRKKEARSKSKADNVGSALGPDWHEGLNLKGTKEFSHKIHLETMCEVKKIYLQDEFRILKKKSFTFPRDHKSVTADTEMWPVYVELTNEKIYGCDFIVSATGVTPNVEPFLHGNSFDLGEDGGLKVDDHMHTSLPDIYAAGDICTTSWQLSPVWQQMRLWTQARQMGWYAAKCMAAASSGDSIDMDFSFELFAHVTKFFNYKVVLLGKYNAQGLGSDHELMLRCTKGREYIKVVMQNGRMMGAVLIGETDLEETFENLILNQMNLSSYGEDLLDPNIDIEAYFD | 
 | PYROXD1 (Homo sapiens; W239A) (protein, full-length from HeLa cDNA, N-terminal GST cut off with 3C protease; E. coli BL21(DE3); FAD-containing) MEAARPPPTAGKFVVVGGGIAGVTCAEQLATHFPSEDILLVTASPVIKAVTNFKQISKILEEFDVEEQSSTMLGKRFPNIKVIESGVKQLKSEEHCIVTEDGNQHVYKKLCLCAGAKPKLICEGNPYVLGIRDTDSAQEFQKQLTKAKRIMIIGNGGIALELVYEIEGCEVIWAIKDKAIGNTFFDAGAAEFLTSKLIAEKSEAKIAHKRTRYTTEGRKKEARSKSKADNVGSALGPDAHEGLNLKGTKEFSHKIHLETMCEVKKIYLQDEFRILKKKSFTFPRDHKSVTADTEMWPVYVELTNEKIYGCDFIVSATGVTPNVEPFLHGNSFDLGEDGGLKVDDHMHTSLPDIYAAGDICTTSWQLSPVWQQMRLWTQARQMGWYAAKCMAAASSGDSIDMDFSFELFAHVTKFFNYKVVLLGKYNAQGLGSDHELMLRCTKGREYIKVVMQNGRMMGAVLIGETDLEETFENLILNQMNLSSYGEDLLDPNIDIEDYFD | Km [3]: 1472.1 ± 105.0 µM
binds | PYROXD1 D500A (enzyme, human, human PYROXD1 (UniProt Q8WU10) with D500A; source: E. coli BL21(DE3), purified (Glutathione Sepharose, 3C cleavage, SEC); not shown: GST, N-terminal, cleaved) MEAARPPPTAGKFVVVGGGIAGVTCAEQLATHFPSEDILLVTASPVIKAVTNFKQISKILEEFDVEEQSSTMLGKRFPNIKVIESGVKQLKSEEHCIVTEDGNQHVYKKLCLCAGAKPKLICEGNPYVLGIRDTDSAQEFQKQLTKAKRIMIIGNGGIALELVYEIEGCEVIWAIKDKAIGNTFFDAGAAEFLTSKLIAEKSEAKIAHKRTRYTTEGRKKEARSKSKADNVGSALGPDWHEGLNLKGTKEFSHKIHLETMCEVKKIYLQDEFRILKKKSFTFPRDHKSVTADTEMWPVYVELTNEKIYGCDFIVSATGVTPNVEPFLHGNSFDLGEDGGLKVDDHMHTSLPDIYAAGDICTTSWQLSPVWQQMRLWTQARQMGWYAAKCMAAASSGDSIDMDFSFELFAHVTKFFNYKVVLLGKYNAQGLGSDHELMLRCTKGREYIKVVMQNGRMMGAVLIGETDLEETFENLILNQMNLSSYGEDLLDPNIDIEDYFA | 
binds | PYROXD1 Y498A (enzyme, human, human PYROXD1 (UniProt Q8WU10) with Y498A; source: E. coli BL21(DE3), purified (Glutathione Sepharose, 3C cleavage, SEC); not shown: GST, N-terminal, cleaved) MEAARPPPTAGKFVVVGGGIAGVTCAEQLATHFPSEDILLVTASPVIKAVTNFKQISKILEEFDVEEQSSTMLGKRFPNIKVIESGVKQLKSEEHCIVTEDGNQHVYKKLCLCAGAKPKLICEGNPYVLGIRDTDSAQEFQKQLTKAKRIMIIGNGGIALELVYEIEGCEVIWAIKDKAIGNTFFDAGAAEFLTSKLIAEKSEAKIAHKRTRYTTEGRKKEARSKSKADNVGSALGPDWHEGLNLKGTKEFSHKIHLETMCEVKKIYLQDEFRILKKKSFTFPRDHKSVTADTEMWPVYVELTNEKIYGCDFIVSATGVTPNVEPFLHGNSFDLGEDGGLKVDDHMHTSLPDIYAAGDICTTSWQLSPVWQQMRLWTQARQMGWYAAKCMAAASSGDSIDMDFSFELFAHVTKFFNYKVVLLGKYNAQGLGSDHELMLRCTKGREYIKVVMQNGRMMGAVLIGETDLEETFENLILNQMNLSSYGEDLLDPNIDIEDAFD | 
binds | PYROXD1 F499A (enzyme, human, human PYROXD1 (UniProt Q8WU10) with F499A; source: E. coli BL21(DE3), purified (Glutathione Sepharose, 3C cleavage, SEC); not shown: GST, N-terminal, cleaved) MEAARPPPTAGKFVVVGGGIAGVTCAEQLATHFPSEDILLVTASPVIKAVTNFKQISKILEEFDVEEQSSTMLGKRFPNIKVIESGVKQLKSEEHCIVTEDGNQHVYKKLCLCAGAKPKLICEGNPYVLGIRDTDSAQEFQKQLTKAKRIMIIGNGGIALELVYEIEGCEVIWAIKDKAIGNTFFDAGAAEFLTSKLIAEKSEAKIAHKRTRYTTEGRKKEARSKSKADNVGSALGPDWHEGLNLKGTKEFSHKIHLETMCEVKKIYLQDEFRILKKKSFTFPRDHKSVTADTEMWPVYVELTNEKIYGCDFIVSATGVTPNVEPFLHGNSFDLGEDGGLKVDDHMHTSLPDIYAAGDICTTSWQLSPVWQQMRLWTQARQMGWYAAKCMAAASSGDSIDMDFSFELFAHVTKFFNYKVVLLGKYNAQGLGSDHELMLRCTKGREYIKVVMQNGRMMGAVLIGETDLEETFENLILNQMNLSSYGEDLLDPNIDIEDYAD | 
